Measurements taken from paper PMC10325903, “Prediction of cooperative homeodomain DNA binding sites from high-throughput-SELEX data”.

Tests used:
Gsx1 HD fragment = Gsx1 HD fragment (UniProt P31315 127-261); assay: EMSA; EMSA, 34 nM IRDye700 probe, room temperature 20 min, 4% polyacrylamide gel 150 V 2 h; binding buffer as in cited ref 35 (not given); conditions: protein: recombinant; tags: N-terminal 6xHis (pET-14b or pET-14P; may be cleaved); chain copies: 2; label: 5' IRDye700 on bottom strand; blunt
VENTX HD fragment = biological target: T1, VENTX HD fragment (UniProt O95231 69-178); assay: as above; conditions: protein: recombinant; tags: N-terminal 6xHis (pET-14b or pET-14P; may be cleaved); chain copies: 2; label: 5' IRDye700 on bottom strand; blunt
T1 sequence: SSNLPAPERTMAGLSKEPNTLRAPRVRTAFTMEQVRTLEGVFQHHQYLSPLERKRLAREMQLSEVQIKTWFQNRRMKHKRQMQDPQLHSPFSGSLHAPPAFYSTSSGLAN

Arx HD fragment = Arx HD fragment (UniProt O35085 292-420); assay: as above; conditions: protein: recombinant; tags: N-terminal 6xHis (pET-14b or pET-14P; may be cleaved); chain copies: 2; label: 5' IRDye700 on bottom strand; blunt
Gsx2 HD fragment = Gsx2 HD fragment (UniProt P31316 167-305); assay: EMSA; 100 and 400 nM protein; EMSA, 34 nM IRDye700 probe, room temperature 20 min, 4% polyacrylamide gel 150 V 2 h; binding buffer as in cited ref 35 (not given); conditions: protein: recombinant; tags: N-terminal 6xHis (pET-14b or pET-14P; may be cleaved); chain copies: 2; label: 5' IRDye700 on bottom strand; blunt
En1 HD fragment = biological target: T2, En1 HD fragment (UniProt P09065 282-401); assay: EMSA; EMSA, 34 nM IRDye700 probe, room temperature 20 min, 4% polyacrylamide gel 150 V 2 h; binding buffer as in cited ref 35 (not given); conditions: protein: recombinant; tags: N-terminal 6xHis (pET-14b or pET-14P; may be cleaved); label: 5' IRDye700 on bottom strand; blunt
T2 sequence: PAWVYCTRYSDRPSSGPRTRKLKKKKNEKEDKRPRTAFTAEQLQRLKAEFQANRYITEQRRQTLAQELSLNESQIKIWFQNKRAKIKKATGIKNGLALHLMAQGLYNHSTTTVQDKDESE

Dlx2 HD fragment = Dlx2 HD fragment (UniProt P40764 137-229); assay: EMSA; 20 and 80 nM protein; monomer; EMSA, 34 nM IRDye700 probe, room temperature 20 min, 4% polyacrylamide gel 150 V 2 h; binding buffer as in cited ref 35 (not given); conditions: protein: recombinant; tags: N-terminal 6xHis (pET-14b or pET-14P; may be cleaved); label: 5' IRDye700 on bottom strand; blunt
Msx2 HD fragment = Msx2 HD fragment (UniProt Q03358 99-227); assay: EMSA; EMSA, 34 nM IRDye700 probe, room temperature 20 min, 4% polyacrylamide gel 150 V 2 h; binding buffer as in cited ref 35 (not given); conditions: protein: recombinant; tags: N-terminal 6xHis (pET-14b or pET-14P; may be cleaved); chain copies: 2; label: 5' IRDye700 on bottom strand; blunt
Barx1 HD fragment = biological target: T3, Barx1 HD fragment (UniProt Q9ER42 95-221); assay: as above; conditions: protein: recombinant; tags: N-terminal 6xHis (pET-14b or pET-14P; may be cleaved); chain copies: 2; label: 5' IRDye700 on bottom strand; blunt
T3 sequence: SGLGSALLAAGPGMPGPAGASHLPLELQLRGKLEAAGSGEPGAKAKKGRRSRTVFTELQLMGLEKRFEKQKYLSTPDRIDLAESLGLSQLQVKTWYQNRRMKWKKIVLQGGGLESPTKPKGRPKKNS

Alx1 (Cart1) HD fragment = Alx1 (Cart1) HD fragment (UniProt Q8C8B0 105-220); assay: as above; conditions: protein: recombinant; tags: N-terminal 6xHis (pET-14b or pET-14P; may be cleaved); chain copies: 2; label: 5' IRDye700 on bottom strand; blunt
MSX1 HD fragment = MSX1 HD fragment (UniProt P28360 131-258); assay: as above; conditions: protein: recombinant; tags: N-terminal 6xHis (pET-14b or pET-14P; may be cleaved); label: 5' IRDye700 on bottom strand; blunt
Alx4 HD fragment = Alx4 HD fragment (UniProt O35137 157-291); assay: as above; conditions: protein: recombinant; tags: N-terminal 6xHis (pET-14b or pET-14P; may be cleaved); chain copies: 2; label: 5' IRDye700 on bottom strand; blunt
HESX1 HD fragment = HESX1 HD fragment (UniProt Q9UBX0 65-185); assay: as above; conditions: protein: recombinant; tags: N-terminal 6xHis (pET-14b or pET-14P; may be cleaved); label: 5' IRDye700 on bottom strand; blunt
Barhl2 HD fragment = Barhl2 HD fragment (UniProt Q8VIB5 190-316); assay: as above; conditions: protein: recombinant; tags: N-terminal 6xHis (pET-14b or pET-14P; may be cleaved); label: 5' IRDye700 on bottom strand; blunt
Chain of Barhl2 HD fragment (Q8VIB5 190-316): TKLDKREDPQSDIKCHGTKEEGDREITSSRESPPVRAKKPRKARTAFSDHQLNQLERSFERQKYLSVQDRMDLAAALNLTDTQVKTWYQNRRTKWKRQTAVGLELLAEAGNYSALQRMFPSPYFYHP

Chain of Msx2 HD fragment (Q03358 99-227): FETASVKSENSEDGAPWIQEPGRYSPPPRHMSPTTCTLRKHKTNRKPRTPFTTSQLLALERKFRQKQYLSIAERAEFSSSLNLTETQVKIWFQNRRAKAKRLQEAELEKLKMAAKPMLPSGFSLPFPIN
Chain of Arx HD fragment (O35085 292-420): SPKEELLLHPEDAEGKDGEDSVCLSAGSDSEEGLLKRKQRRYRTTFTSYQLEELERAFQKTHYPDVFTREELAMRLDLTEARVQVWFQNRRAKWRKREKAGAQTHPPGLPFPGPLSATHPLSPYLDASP
Chain of Gsx2 HD fragment (P31316 167-305): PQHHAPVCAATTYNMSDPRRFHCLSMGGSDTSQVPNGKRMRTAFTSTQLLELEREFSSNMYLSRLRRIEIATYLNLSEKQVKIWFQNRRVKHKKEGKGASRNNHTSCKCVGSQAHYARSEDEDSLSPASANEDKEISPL
Chain of Gsx1 HD fragment (P31315 127-261): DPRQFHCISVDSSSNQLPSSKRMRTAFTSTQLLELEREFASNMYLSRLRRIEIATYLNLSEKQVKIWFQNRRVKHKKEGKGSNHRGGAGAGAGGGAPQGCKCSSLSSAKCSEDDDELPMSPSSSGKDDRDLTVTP
Chain of Alx1 (Cart1) HD fragment (Q8C8B0 105-220): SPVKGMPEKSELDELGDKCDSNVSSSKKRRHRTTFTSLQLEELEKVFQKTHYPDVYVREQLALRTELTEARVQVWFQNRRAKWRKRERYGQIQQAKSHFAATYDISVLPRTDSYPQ
Chain of Alx4 HD fragment (O35137 157-291): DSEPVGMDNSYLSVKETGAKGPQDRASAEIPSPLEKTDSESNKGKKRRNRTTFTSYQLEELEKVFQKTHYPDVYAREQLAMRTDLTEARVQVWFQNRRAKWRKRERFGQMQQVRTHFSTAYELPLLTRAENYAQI
Chain of MSX1 HD fragment (P28360 131-258): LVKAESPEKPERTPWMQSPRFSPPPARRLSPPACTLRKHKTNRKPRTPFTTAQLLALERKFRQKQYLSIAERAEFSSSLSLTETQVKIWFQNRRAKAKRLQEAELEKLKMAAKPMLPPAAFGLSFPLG
Chain of HESX1 HD fragment (Q9UBX0 65-185): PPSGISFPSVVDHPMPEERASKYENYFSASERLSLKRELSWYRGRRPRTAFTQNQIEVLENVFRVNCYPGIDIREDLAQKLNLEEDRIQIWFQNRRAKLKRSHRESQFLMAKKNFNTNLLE
Chain of Dlx2 HD fragment (P40764 137-229): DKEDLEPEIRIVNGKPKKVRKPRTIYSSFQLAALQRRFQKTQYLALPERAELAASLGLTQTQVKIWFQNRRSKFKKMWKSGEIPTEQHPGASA

B1: Gsx1_HOMER+1 (dsDNA)
DNA 1: TCACACTTAATTACTGAATTAATTACGTAGTGCGGGCGTGGCT
DNA 2: AGCCACGCCCGCACTACGTAATTAATTCAGTAATTAAGTGTGA
Gsx1 HD fragment
  cooperativity factor (tau): 2.9 ± 0.9 Tau cooperativity factor

B2: VENTX_SELEX_1+1 (dsDNA)
DNA 1: TGAAGTTAAGCCTAATCGATAGAACGATTAGCGTTAGGAATAGTGCGGGCGTGGCT
DNA 2: AGCCACGCCCGCACTATTCCTAACGCTAATCGTTCTATCGATTAGGCTTAACTTCA
VENTX HD fragment
  cooperativity factor (tau): 3.3 ± 3 Tau cooperativity factor

B3: Arx_SELEX_1 (dsDNA)
DNA 1: TGCGTTGCTAATTGAATTAGCACACGTGCTAGTGCGGGCGTGGCT
DNA 2: AGCCACGCCCGCACTAGCACGTGTGCTAATTCAATTAGCAACGCA
Arx HD fragment
  cooperativity factor (tau): 168 ± 50.7 Tau cooperativity factor

B4: Arx_SELEX_1+1 (dsDNA)
DNA 1: TGCGTTGCTAATTGGAATTAGCACACGTGCTAGTGCGGGCGTGGCT
DNA 2: AGCCACGCCCGCACTAGCACGTGTGCTAATTCCAATTAGCAACGCA
Arx HD fragment
  cooperativity factor (tau): 36.4 ± 11.5 Tau cooperativity factor

B5: Gsx2_SELEX_1 (dsDNA)
DNA 1: TCCAACAACAATTAAAAACATATTAACGTAGTGCGGGCGTGGCT
DNA 2: AGCCACGCCCGCACTACGTTAATATGTTTTTAATTGTTGTTGGA
Gsx2 HD fragment
  binding result: binds

B6: En1_SELEX_2+1 (dsDNA)
DNA 1: TGTAGGATAATTGGGGTAATTAGTGCAGATAGTGCGGGCGTGGCT
DNA 2: AGCCACGCCCGCACTATCTGCACTAATTACCCCAATTATCCTACA
En1 HD fragment
  cooperativity factor (tau): 0.2 ± 0.1 Tau cooperativity factor

B7: VENTX_SELEX_1 (dsDNA)
DNA 1: TGAAGTTAAGCCTAATCGATAAACGATTAGCGTTAGGAATAGTGCGGGCGTGGCT
DNA 2: AGCCACGCCCGCACTATTCCTAACGCTAATCGTTTATCGATTAGGCTTAACTTCA
VENTX HD fragment
  cooperativity factor (tau): 36.7 ± 3.9 Tau cooperativity factor

B8: Dlx2_HOMER (dsDNA)
DNA 1: TTCATGGGTAATTAGGTGTTATTATAGTGCGGGCGTGGCT
DNA 2: AGCCACGCCCGCACTATAATAACACCTAATTACCCATGAA
Dlx2 HD fragment
  binding result: binds

B9: En1_SELEX_2 (dsDNA)
DNA 1: TGTAGGATAATTGGGTAATTAGTGCAGATAGTGCGGGCGTGGCT
DNA 2: AGCCACGCCCGCACTATCTGCACTAATTACCCAATTATCCTACA
En1 HD fragment
  cooperativity factor (tau): 0.1 ± 0.1 Tau cooperativity factor

B10: Msx2_SELEX_2+1 (dsDNA)
DNA 1: TGCGGGGCAATTAAATGACCAATTAGTGATAGTGCGGGCGTGGCT
DNA 2: AGCCACGCCCGCACTATCACTAATTGGTCATTTAATTGCCCCGCA
Msx2 HD fragment
  cooperativity factor (tau): 2.1 ± 0.6 Tau cooperativity factor

B11: Barx1_SELEX_2 (dsDNA)
DNA 1: TATTCGAAACAATTAAATAACGATTACTGTAGTGCGGGCGTGGCT
DNA 2: AGCCACGCCCGCACTACAGTAATCGTTATTTAATTGTTTCGAATA
Barx1 HD fragment
  cooperativity factor (tau): 4.4 ± 0.6 Tau cooperativity factor

B12: Alx1_SELEX_2 (dsDNA)
DNA 1: TGCGCCTAATTAGATTAACCTGAACAGATAGTGCGGGCGTGGCT
DNA 2: AGCCACGCCCGCACTATCTGTTCAGGTTAATCTAATTAGGCGCA
Alx1 (Cart1) HD fragment
  cooperativity factor (tau): 126 ± 27.2 Tau cooperativity factor

B13: Gsx1_HOMER (dsDNA)
DNA 1: TCACACTTAATTACTAATTAATTACGTAGTGCGGGCGTGGCT
DNA 2: AGCCACGCCCGCACTACGTAATTAATTAGTAATTAAGTGTGA
Gsx1 HD fragment
  cooperativity factor (tau): 48.7 ± 12.9 Tau cooperativity factor

B14: MSX1_SELEX_1+1 (dsDNA)
DNA 1: TGCGAACAGAAGCCAATTAGTGGCTAATTGGCCAATTAGCTAGTGCGGGCGTGGCT
DNA 2: AGCCACGCCCGCACTAGCTAATTGGCCAATTAGCCACTAATTGGCTTCTGTTCGCA
MSX1 HD fragment
  cooperativity factor (tau): 1.2 ± 0.2 Tau cooperativity factor

B15: Msx2_SELEX_2 (dsDNA)
DNA 1: TGCGGGGCAATTAAATACCAATTAGTGATAGTGCGGGCGTGGCT
DNA 2: AGCCACGCCCGCACTATCACTAATTGGTATTTAATTGCCCCGCA
Msx2 HD fragment
  cooperativity factor (tau): 14 ± 2.6 Tau cooperativity factor

B16: Alx1_SELEX_2+1 (dsDNA)
DNA 1: TGCGCCTAATTAGGATTAACCTGAACAGATAGTGCGGGCGTGGCT
DNA 2: AGCCACGCCCGCACTATCTGTTCAGGTTAATCCTAATTAGGCGCA
Alx1 (Cart1) HD fragment
  cooperativity factor (tau): 10.1 ± 9.7 Tau cooperativity factor

B17: Alx4_SELEX_1 (dsDNA)
DNA 1: TGTGTCTTAATTAGATTAACGCACTTGATAGTGCGGGCGTGGCT
DNA 2: AGCCACGCCCGCACTATCAAGTGCGTTAATCTAATTAAGACACA
Alx4 HD fragment
  cooperativity factor (tau): 167 ± 23.1 Tau cooperativity factor

B18: Alx4_SELEX_1+1 (dsDNA)
DNA 1: TGTGTCTTAATTAGGATTAACGCACTTGATAGTGCGGGCGTGGCT
DNA 2: AGCCACGCCCGCACTATCAAGTGCGTTAATCCTAATTAAGACACA
Alx4 HD fragment
  cooperativity factor (tau): 1.1 ± 0.8 Tau cooperativity factor

B19: HESX1_HOMER (dsDNA)
DNA 1: TCTTCTCTAATTAGTGCTAATTCTGTAGTGCGGGCGTGGCT
DNA 2: AGCCACGCCCGCACTACAGAATTAGCACTAATTAGAGAAGA
HESX1 HD fragment
  cooperativity factor (tau): 1.7 ± 2 Tau cooperativity factor

B20: Dlx2_SELEX_2 (dsDNA)
DNA 1: TTCATGCAATTACTGCTAATTGCCACTATAGTGCGGGCGTGGCT
DNA 2: AGCCACGCCCGCACTATAGTGGCAATTAGCAGTAATTGCATGAA
Dlx2 HD fragment
  binding result: binds

B21: Barhl2_SELEX_1 (dsDNA)
DNA 1: TATTGTTGCTAAACGGTGCGTTTAGCGTGTAGTGCGGGCGTGGCT
DNA 2: AGCCACGCCCGCACTACACGCTAAACGCACCGTTTAGCAACAATA
Barhl2 HD fragment
  cooperativity factor (tau): 5.4 ± 0.58 Tau cooperativity factor

B22: HESX1_HOMER+1 (dsDNA)
DNA 1: TCTTCTCTAATTAGTGGCTAATTCTGTAGTGCGGGCGTGGCT
DNA 2: AGCCACGCCCGCACTACAGAATTAGCCACTAATTAGAGAAGA
HESX1 HD fragment
  cooperativity factor (tau): 1.3 ± 1.8 Tau cooperativity factor

B23: Gsx2_SELEX_2 (dsDNA)
DNA 1: TCCAACAGTCATTAAACTCTCATTATCGTAGTGCGGGCGTGGCT
DNA 2: AGCCACGCCCGCACTACGATAATGAGAGTTTAATGACTGTTGGA
Gsx2 HD fragment
  binding result: binds

B24: Barx1_SELEX_2+1 (dsDNA)
DNA 1: TATTCGAAACAATTAAATAGACGATTACTGTAGTGCGGGCGTGGCT
DNA 2: AGCCACGCCCGCACTACAGTAATCGTCTATTTAATTGTTTCGAATA
Barx1 HD fragment
  cooperativity factor (tau): 0.7 ± 0.2 Tau cooperativity factor

B25: MSX1_SELEX_1 (dsDNA)
DNA 1: TGCGAACAGAAGCCAATTAGTGCTAATTGGCCAATTAGCTAGTGCGGGCGTGGCT
DNA 2: AGCCACGCCCGCACTAGCTAATTGGCCAATTAGCACTAATTGGCTTCTGTTCGCA
MSX1 HD fragment
  cooperativity factor (tau): 1.2 ± 0.1 Tau cooperativity factor

B26: Barhl2_SELEX_1+1 (dsDNA)
DNA 1: TATTGTTGCTAAACGGTGGCGTTTAGCGTGTAGTGCGGGCGTGGCT
DNA 2: AGCCACGCCCGCACTACACGCTAAACGCCACCGTTTAGCAACAATA
Barhl2 HD fragment
  cooperativity factor (tau): 6.4 ± 1.2 Tau cooperativity factor
